The values below come from FireProtDB (doi:10.1093/jb/mvq079).

The conditions of the data set: Escherichia coli (strain K12), whole UniProt chain shown.

B1: Divalent-cation tolerance protein CutA wild type, P69488 (protein)
chain: MLDEKSSNTASVVVLCTAPDEATAQDLAAKVLAEKLAACATLIPGATSLYYWEGKLEQEYEVQMILKTTVSHQQALLECLKSHHPYQTPELLVLPVTHGDTDYLSWLNASLR
The Tm is the temperature at the midpoint of the melting transition. On to B1, for which the “denaturant midpoint (higher = more stable)” value (pH 8, 37 °C, GdnHCl, CD, Tris-HCl, reversible: yes) was 2.72 M. The Tm (pH 9, Thermal, DSC, glycine Buffer, transition: 2, reversible: no) worked out at 89.9 °C.
